Measurements as given in patent US20190263918A1 (SHANGHAI JIAO TONG UNIVERSITY SCHOOL OF MEDICINE, published 2019).

T1: human FcγRIIA-R131 extracellular domain protein (human, UniProt P12318 34-217)
T1 construct: extracellular domain; SPR: His-tagged, immobilised; ELISA: biotinylated; also called hFcγRIIA-R131; CD32a
T1 sequence (looked up): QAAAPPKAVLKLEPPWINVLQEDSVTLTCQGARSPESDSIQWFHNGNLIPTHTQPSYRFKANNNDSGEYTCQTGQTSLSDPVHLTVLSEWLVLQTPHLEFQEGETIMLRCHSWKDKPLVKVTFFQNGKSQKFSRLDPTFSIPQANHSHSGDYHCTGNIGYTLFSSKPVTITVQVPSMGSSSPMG

T2: human FcγRIIB extracellular domain protein (human, UniProt P31994 43-217)
T2 construct: extracellular domain; SPR: His-tagged, immobilised; ELISA: biotinylated; also called hFcγRIIB; CD32b
T2 sequence (looked up): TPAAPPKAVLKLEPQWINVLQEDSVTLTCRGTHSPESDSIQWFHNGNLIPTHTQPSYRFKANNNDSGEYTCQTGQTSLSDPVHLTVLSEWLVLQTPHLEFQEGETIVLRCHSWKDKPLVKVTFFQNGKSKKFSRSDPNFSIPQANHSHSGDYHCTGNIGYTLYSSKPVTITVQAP

B1: Fc fragment of heavy chain constant region V9(H1) (hIgG1 G237D/P238D/P271G/A330R) (other)
chain: PELLGDDSVFLFPPKPKDTLMISRTPEVTCVVVDVSHEDGEVKFNWYVDGVEVHNAKTKPREEQYNSTYRVVSVLTVLHQDWLNGKEYKCKVSNKALPRPIEKTISKAKGQPREPQVYTLPPSRDELTKNQVSLTCLVKGFYPSDIAVEWESNGQPENNYKTTPPVLDSDGSFFLYSKLTVDKSRWQQGNVFSCSVMHEALHNHYTQKSLSLSPGK
B2: Fc fragment of heavy chain constant region V11(H1) (hIgG1 G237D/P238D/H268D/P271G/A330R) (other)
chain: PELLGDDSVFLFPPKPKDTLMISRTPEVTCVVVDVSDEDGEVKFNWYVDGVEVHNAKTKPREEQYNSTYRVVSVLTVLHQDWLNGKEYKCKVSNKALPRPIEKTISKAKGQPREPQVYTLPPSRDELTKNQVSLTCLVKGFYPSDIAVEWESNGQPENNYKTTPPVLDSDGSFFLYSKLTVDKSRWQQGNVFSCSVMHEALHNHYTQKSLSLSPGK
B3: Anti-hCD40-hIgG2(V11) (antibody)
heavy: not shown
light: DIQMTQSPSSVSASVGDRVTITCRASQGIYSWLAWYQQKPGKAPNLLIYTASTLQSGVPSRFSGSGSGTDFTLTISSLQPEDFATYYCQQANIFPLTFGGGTKVEIKRTVAAPSVFIFPPSDEQLKSGTASVVCLLNNFYPREAKVQWKVDNALQSGNSQESVTEQDSKDSTYSLSSTLTLSKADYEKHKVYACEVTHQGLSSPVTKSFNRGEC
notes: Human anti-human CD40 antibody, heavy chain constant region V11(H2), i.e. JAC1; also called anti-human CD40 antibody comprising JAC1
B4: Fc fragment of heavy chain constant region G2 (hIgG2) (other)
chain: PPVAGPSVFLFPPKPKDTLMISRTPEVTCVVVDVSHEDPEVQFNWYVDGVEVHNAKTKPREEQFNSTFRVVSVLTVVHQDWLNGKEYKCKVSNKGLPAPIEKTISKTKGQPREPQVYTLPPSREEMTKNQVSLTCLVKGFYPSDIAVEWESNGQPENNYKTTPPMLDSDGSFFLYSKLTVDKSRWQQGNVFSCSVMHEALHNHYTQKSLSLSPGK
B5: Anti-mCD40-hIgG2-GASDALIE (antibody)
heavy: EVQLVESDGGLVQPGRSLKLPCAASGFTFSDYYMAWVRQAPTKGLEWVASISYDGSSTYYRDSVKGRFTISRDNAKSTLYLQMDSLRSEDTATYYCGRHSSYFDYWGQGVMVTVSSASTKGPSVFPLAPCSRSTSESTAALGCLVKDYFPEPVTVSWNSGALTSGVHTFPAVLQSSGLYSLSSVVTVPSSNFGTQTYTCNVDHKPSNTKVDKTVERKCCVECPPCPAPELLAGPDVFLFPPKPKDTLMISRTPEVTCVVVDVSHEDPEVKFNWYVDGVEVHNAKTKPREEQYNSTYRVVSVLTVLHQDWLNGKEYKCKVSNKALPLPEEKTISKAKGQPREPQVYTLPPSRDELTKNQVSLTCLVKGFYPSDIAVEWESNGQPENNYKTTPPVLDSDGSFFLYSKLTVDKSRWQQGNVFSCSVMHEALHNHYTQKSLSLSPGK
light: DTVLTQSPALAVSPGERVTISCRASDSVSTLMHWYQQKPGQQPKLLIYLASHLESGVPARFSGSGSGTDFTLTIDPVEADDTATYYCQQSWNDPWTFGGGTKLELKRTVAAPSVFIFPPSDEQLKSGTASVVCLLNNFYPREAKVQWKVDNALQSGNSQESVTEQDSKDSTYSLSSTLTLSKADYEKHKVYACEVTHQGLSSPVTKSFNRGEC
notes: Chimeric anti-murine CD40 antibody
B6: Anti-mCD40-hIgG2-NA (antibody)
heavy: EVQLVESDGGLVQPGRSLKLPCAASGFTFSDYYMAWVRQAPTKGLEWVASISYDGSSTYYRDSVKGRFTISRDNAKSTLYLQMDSLRSEDTATYYCGRHSSYFDYWGQGVMVTVSSASTKGPSVFPLAPCSRSTSESTAALGCLVKDYFPEPVTVSWNSGALTSGVHTFPAVLQSSGLYSLSSVVTVPSSNFGTQTYTCNVDHKPSNTKVDKTVERKCCVECPPCPAPPVAGPSVFLFPPKPKDTLMISRTPEVTCVVVDVSHEDPEVQFNWYVDGVEVHNAKTKPREEQFASTFRVVSVLTVVHQDWLNGKEYKCKVSNKGLPAPIEKTISKTKGQPREPQVYTLPPSREEMTKNQVSLTCLVKGFYPSDIAVEWESNGQPENNYKTTPPMLDSDGSFFLYSKLTVDKSRWQQGNVFSCSVMHEALHNHYTQKSLSLSPGK
light: DTVLTQSPALAVSPGERVTISCRASDSVSTLMHWYQQKPGQQPKLLIYLASHLESGVPARFSGSGSGTDFTLTIDPVEADDTATYYCQQSWNDPWTFGGGTKLELKRTVAAPSVFIFPPSDEQLKSGTASVVCLLNNFYPREAKVQWKVDNALQSGNSQESVTEQDSKDSTYSLSSTLTLSKADYEKHKVYACEVTHQGLSSPVTKSFNRGEC
notes: Chimeric anti-murine CD40 antibody, heavy chain constant region G2-NA (N297A)

Columns and labels:
[1] = target: T3, human FcγRIIIA-F158 extracellular domain protein (human, UniProt P08637 17-208); experiment: SPR, Biacore T100, FcγR extracellular domain immobilised
T3 construct: extracellular domain; SPR: His-tagged, immobilised; also called hFcγRIIIA-F158; CD16a
T3 sequence (P08637 17-208): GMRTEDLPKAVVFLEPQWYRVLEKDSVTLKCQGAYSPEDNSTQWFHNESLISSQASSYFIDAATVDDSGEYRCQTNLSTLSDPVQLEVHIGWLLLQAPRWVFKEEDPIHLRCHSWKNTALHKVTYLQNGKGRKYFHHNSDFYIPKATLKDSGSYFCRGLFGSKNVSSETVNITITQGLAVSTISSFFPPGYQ

[2] = target: T4, human FcγRI extracellular domain protein (human, UniProt P12314 16-292); experiment: SPR, Biacore T100, FcγR extracellular domain immobilised, 1:1 model
T4 construct: extracellular domain; also called hFcγRI; CD64
T4 sequence (P12314 16-292): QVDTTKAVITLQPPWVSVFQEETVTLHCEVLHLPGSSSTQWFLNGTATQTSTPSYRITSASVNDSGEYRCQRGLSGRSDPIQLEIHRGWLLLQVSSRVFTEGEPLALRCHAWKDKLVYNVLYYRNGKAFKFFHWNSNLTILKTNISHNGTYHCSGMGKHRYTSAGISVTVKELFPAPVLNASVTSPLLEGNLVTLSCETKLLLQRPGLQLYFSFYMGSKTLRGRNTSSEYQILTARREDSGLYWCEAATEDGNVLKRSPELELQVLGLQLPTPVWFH

[3] = target: T1, human FcγRIIA-R131 extracellular domain …; experiment: as above
[4] = target: T2, human FcγRIIB extracellular domain …; experiment: as above
[5] = target: T2, human FcγRIIB extracellular domain …; experiment: SPR; fold against G1
[6] = target: T2, human FcγRIIB extracellular domain …; experiment: SPR; [lower of KD(hFcγRIIA-R131) and KD(hFcγRIIIA-F158)]/KD(hFcγRIIB)
[7] = target: T1, human FcγRIIA-R131 extracellular domain …; experiment: ELISA: plate coated with the anti-human CD40 antibody, biotinylated human FcγRIIA-R131 extracellular domain, streptavidin-HRP, A650 [upper FcγRIIA-R131 panel]
Protocol: (§1) The ELISA plate was coated with 100 μL antibody at an appropriate concentration overnight, supernatant being discarded. The plate was blocked with 1% BSA in PBS for 2 hours, followed by washing with PBST (PBS with 0.05% Tween 20). Then, biotinylated FcγR extracellular domain protein (Sino Biologic Inc., Beijing China) at a concentration as appropriate was added and incubated at room temperature for 1 hour, supernatant being discarded, followed by PBST wash. Streptavidin-HRP (BD Biosciences) was added and incubated at room temperature for 1 hour for detection of biotin protein. After removal of supernatant, developing solution was added to react for 20-40 minutes, and absorbance was determined at 650 nm (A650).

[8] = target: T4, human FcγRI extracellular domain protein; experiment: SPR, Biacore T100, FcγR extracellular domain immobilised
[9] = target: T2, human FcγRIIB extracellular domain …; experiment: SPR (refers to Table 4, Fc fragments)
[10] = target: T1, human FcγRIIA-R131 extracellular domain …; experiment: ELISA, coated antibody, biotinylated FcγR extracellular domain
Protocol: as §1

Binder | binding result [1] | Kd [2] [nM] | Kd [3] [nM] | Kd [4] [nM] | folds of increase in hFcγRIIB binding [5] [fold] | further results
B1 | no binding | 580 | 4100 | 94 |  | 
B2 | no binding | 230 | 3800 | 14 | 94 | I/A ratio [6]: 271
B3 |  |  |  |  |  | binding result [7]: binds
B4 |  |  |  |  | < 0.4 | binding result [8]: no binding
B5 |  |  |  |  |  | binding result [9]: binds
B6 |  |  |  |  |  | binding result [10]: no binding
